B1: TPR t1 (parent)
chain: GACCAAUCUGCCCUCAGAGCUCGAGAACAUCUUCGGAUGCAGAGGAGGCAGGCUUCGGUGGCGCGAUAGCGCCAACGUCCUCAACCUCCAAUGCAUCCCACCACAUGAUGAUGCCUGAAGAGCCUUGGUUUUUUG

Variants of: B1
Test: polymerase ribozyme fitness, log enrichment relative to wild type (log ratio); higher = more active; in vitro selection for triplet polymerase activity
Procedure, shortened: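 Mutant libraries were PCR-built and transcribed for each subunit of a heterodimeric triplet polymerase ribozyme and selected for one round in triplicate at −7 °C, frozen, before gel excision of extended constructs and streptavidin-bead capture. Input and output libraries were Illumina-sequenced, keeping genotypes with ≥10 input reads and ≥1 read per output. Fitness is a logarithmic ratio of genotype to wild-type enrichment, in base 2, using inverse-variance-weighted replicate averages.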

Compared with GUCCAAUCUGUCCUCAGAGCACGAGAACAUCUUCGGAUGCAGAGGAGGCAGGCUUCGGUGGCGCGAUAGCGCCAACGUCCUCAACCUCCAAUGCAUCCCACCACAUGAUGAUGCCUGAAGAGCCUUGGUUUUUUG, GACCAAUCUGCCCUCAGAGCUCGAGAACAUCUUCGGAUGCAGAGGAGGCAGGCUUCGGUGGCGCGAUAGCGCCAACGUCCUCAACCUCCAAUGCAUCCCACCACCUGAAGAUGCCUGAAGAGCCUUGGUUUUCUG is lower in “polymerase ribozyme fitness (log ratio)” value: -1.96 for the first, -5.16 for the second.

First: GACCAAUCUGCCCUCAGAGCUCGAGAACAUCUUCGGAUGCAGAGGAGGCAGGCUUCGGUGGCGCGAUAGCGCCAACGUCCUCAACCUACAAUGCAUCCCACAACAUGAUGAUGCCUGAAGAGCCUUGGUUUUUUG
Second: GACCAAUCUGCCCUCAGAGCUCGAGAACAUCUUCGUAUGCAGAGGAGGCAGGCUUCGGUGGCGCGAUAGCGCCAACGUCAACAACCUCCAAUGCAUCCCACCACAUGAUGAUGCCUGAAGUGCCUUGGUCUUUUG
The “polymerase ribozyme fitness (log ratio)” value of the first is lower: -2.16 for the first, -0.239 for the second.

Going from GGCCAAUCUGCCCUCAGAGCUCGAGAACAUCUUCGGAUGCAGAGGAGGCAGGCAUCGGUCGCGCGAUAGCGCCAACGUCCUCAACCUCCAAUGCAUCCCACCACAGGAUGAUGCCUGAAGAGCCUUGGUUUUUUG to GACCAAUUUGCCCUCAGAGCUCGAGAACAUCUUCGGAUGCAGAGGAGGCAGGCUUUGGUGACGCGAUAGCGCCAACGUCCUCAACCUCCAAUGCUUCCCACCACAUGAUGAUGCCUGAAAAGCCUUGGUUUUUUG, the “polymerase ribozyme fitness (log ratio)” value falls from -2.29 to -6.04.

First: GACCAAUCGGCCCUCAGAGCUCGAGAACAUCUUCGGAUGCAGAGGAGGCAGGCUUCGGUGGCGCGAUAGCGGCAACGUCCUCAACAUCCAAUGCAUCCCACCACAUGAUGAUGCCUGAAGAGCCUUGGUUUUUUG
Second: GACCAAUCUGCCCUCAGAGCUCGAGAACAUCUUCGGAUGCAGAGGAGGCAGGCUUCGGUGGCAUGAUAGCGCGAACGUCUUCAACCUCCAAUACAUUCCACCACAUGAUGAUGCCUUAAGAGCCUUGGUUUUUUG
The “polymerase ribozyme fitness (log ratio)” value of the first is higher: -1.02 for the first, -6.14 for the second.

Compared with GACCAAUCUGCACUCAGAGCUCGAGAACAUCUUCGGAUGUAGAGGAGGCAGGCUUCGGUGGCGCGAUAGCGCCAACGUCCUCAACCUCCAAUGCAUCCCACCACAUGAUGCUGCCUGAAGAGCCUUGGUUAUUUG, GACCAAUGUGCGCUCAGAGCUCGAGAACAUCUUCGGAUGCAGAGGAGGCAGGCUGCGGUGUCGCGAUAGCACCAACGUCCUCAACCUCCAAUGCAUCCCACCACAUGAUGAUGCCUGAAGAGCCUUGGUUUUUUG is lower in “polymerase ribozyme fitness (log ratio)” value: -0.623 for the first, -6.64 for the second.

Compared with GACCUAUCUGCCCUCAGAGCUCGAGAACAUCUUCGGAUGCAGAGGAGGCAGGCUUCGGUGGCGCGAUAGCGCCAACGUCCUCAACCUCCAAUGCAUCCCACCACAUGAUGAAGCCUGUAGAGCCCUGGUUUUUUG, GACCAAUCUGCCCUCAGAGCUCGAGAACAUCUUCGGAUGCAGAGGAGGCAGGCUUCGGUGACGCGAUAGCGCCAACGUUCUCAACCUACAAUGCAUCCCACCACAUGAUGAUGCCUGAAGAGCCUUGGGUUUUUG is lower in “polymerase ribozyme fitness (log ratio)” value: 0.369 for the first, -1.53 for the second.

Going from GACCAAUCUGCCCUCAGAGCUCGAGAACAUCUUCGGAUGCAGAGGAGGUAGGCUUCGGUGGCGUGAUAGCGCCAACGUCCUCAACCUCCAAUGCAUCCCACCACAUGAUGAUGCCUGAAGAGCCUUGGUUUUUUG to GACCAAUCUGCCCUCAGAGCUCGAGAACAUCUUCGGAUGCAGAGGAGGCAGGCUUCGGUGCCGCGAUAGCGCCAACGUCCUCAACCUCCUAUGCAUCCCACCACAUGAUGAUGCCUGAAGAGCCUUGGUUUUUUG, the “polymerase ribozyme fitness (log ratio)” value falls from -0.897 to -4.47.

Compared with GACCAAUCUGCCCUCAGAGCUCGAGAACAUCUUCGGAUGCAGAGGAGGCAGGCUUCGGUGACGCGAUAGCGCCAACGUCCUCAUCCUCCAAUGCAUCCCACCACAUGAUGAUGCCUAAAGAGCCUUGGUUUUUUG, GACGAAUCCGCCCUAAGAGCUCGAGAACAUCUUCGGAUGCAGAGGAGGCAGGCUCCGGUGGCGCGAUAGCGCAAACGUGCUCAACCUCCAAUGCAUCCCACCACAUGAUGAUGCCUGAAGAGCCUUGGUUUUUUG is lower in “polymerase ribozyme fitness (log ratio)” value: -1.64 for the first, -2.6 for the second.

First: GACCAAUCUGCCCUCUCAGCUCGAGAACAUCUUCGGAUGCAGAGGAGGCAGGCUUCGGUGGCGCGAUAGCGCCAACGUCCUCAACCUCCAAUGCAUCCCACCACAUGAUGAUGUCUGAAGAGCCUUGGUUUUUUG
Second: GACCAAUCUGCCUUCAGAGCUCGAGAACAUCUUCGGAUGCAGAGGAGGCAGGCUUCGGUGGCGCGAUAGCGCCAACGUCCUCAACCUCCAAUGCAUCUCACCACAUGAUGAUGCCUGAAGAGCCUUGGUUUUUUG
The “polymerase ribozyme fitness (log ratio)” value of the first is lower: -1.76 for the first, -1.1 for the second.

Going from GACCAAUCUGGCCUCAGAGCUCGAGAACAUCUUCGGAUGCAGAGGAGGCAGGCUUCGGUGACGCGAUAGCGCCAACGUCCUCAACCUCCAAUGCAUCCCACCACAUGAUGAUGCCUGAAGAGCAUUGGUUUUUUG to GACCAAUCUGCCCUCAGAGCUCGAGAACAUCUUCGGAUGCAGAGGAGGCAGGCUUCGGUGGCGCGAUAGCGCCAAAGUCCUCAUCCUCCAAUGCAUCCCACCACAAGAUGAUGCCUGAAUAGCCUUGGUUUUUUG, the “polymerase ribozyme fitness (log ratio)” value falls from 2.07 to -2.24.

In the case of GACCAAUCUGCCCUCAGAGCUCGAGAACAUCUUCGGAUGCAGAGGAGGCAGGCUUCGGUGGCGUGAUAGCGCCAACGUCCUCAACCUCCAAUGCAUCCCACCACAUGAUGAUGCCUGAAUAGCCUUGGUUUUUUG, the “polymerase ribozyme fitness (log ratio)” value is reported as 0.23.
